{"source": "paper PMC10153361", "about": "“Mechanism of imidazole inhibition of a GH1 β‐glucosidase” (FEBS Open Bio, 2023)", "proteins": {"B1": {"name": "Sfβgly (GH1 β-glucosidase from Spodoptera frugiperda) (Spodoptera frugiperda) (protein)", "chain": "QQRRFPDDFLFGTATASYQIEGAWDEDGKGENIWDYMVHNTPEVIRDLSNGDIAADSYHNYKRDVEMMRELGLDAYRFSLSWARILPTGMANEVNPAGIAFYNNYIDEMLKYNITPLITLYHWDLPQKLQELGGFANPLISDWFEDYARVVFENFGDRVKMFITFNEPREICFEGYGSATKAPILNATAMGAYLCAKNLVTAHAKAYYLYDREFRPVQGGQCGITISVNWFGPATPTPEDEMAAELRRQGEWGIYAHPIFSAEGGFPKELSDKIAEKSAQQGYPWSRLPEFTEEEKAFVRGTSDLIGVNHYTAFLVSATERKGPYPVPSLLDDVDTGSWADDSWLKSASAWLTLAPNSIHTALTHLNNLYNKPVFYITENGWSTDESRENSLIDDDRIQYYRASMESLLNCLDDGINLKGYMAWSLMDNFEWMEGYIERFGLYEVDFSDPARTRTPRKAAFVYKHIIKHRVVDYEYEPETMVMTIDEGH", "notes": "recombinant, E. coli BL21(DE3), vector pET46, Ni-NTA purified; secreted digestive midgut enzyme; catalytic residues E187 and E399"}}, "substrate": "O=[N+]([O-])c1ccc(O[C@@H]2O[C@H](CO)[C@@H](O)[C@H](O)[C@H]2O)cc1", "experiment": "purified protein", "format": "biochemical, Spodoptera frugiperda", "conditions": "100 mM phosphate pH 6.0, 30 °C", "data": [{"protein": "B1", "values": [{"measurement": "Km", "value": "1730 ± 40", "unit": "µM"}, {"measurement": "kcat", "value": "1.33 ± 0.333", "unit": "s⁻¹"}]}]}
